Assay results taken from paper PMC9468648, “Profiling of transcriptional regulators associated with starch biosynthesis in sorghum (Sorghum bicolor L.)”.

Key:
Assay in all cases: EMSA; Chemiluminescent EMSA Kit (Beyotime) per manufacturer's instructions; buffer, salt, pH and temperature not stated
Conditions in all cases: protein: recombinant; tags: His (pET32a fusion); chain copies: 2; label: 5' biotin; blunt
[1] = molecular target: T1, SORBI_3009G086800 (NAC TF) (UniProt C5YV73 1-402)
T1 sequence: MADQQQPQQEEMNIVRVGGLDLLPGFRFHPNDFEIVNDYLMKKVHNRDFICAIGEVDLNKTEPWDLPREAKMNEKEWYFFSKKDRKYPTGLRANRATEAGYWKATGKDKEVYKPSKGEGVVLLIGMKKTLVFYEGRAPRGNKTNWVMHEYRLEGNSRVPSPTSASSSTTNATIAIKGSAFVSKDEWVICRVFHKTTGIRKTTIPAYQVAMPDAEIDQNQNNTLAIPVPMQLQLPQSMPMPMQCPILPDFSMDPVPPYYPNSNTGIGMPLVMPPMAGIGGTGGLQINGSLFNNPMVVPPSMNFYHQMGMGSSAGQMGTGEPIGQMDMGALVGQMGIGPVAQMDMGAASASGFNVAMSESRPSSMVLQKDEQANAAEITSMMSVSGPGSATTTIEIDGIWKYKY

[2] = molecular target: T2, SORBI_3003G105600 (NAC TF) (UniProt C5XF21 1-400)
T2 sequence: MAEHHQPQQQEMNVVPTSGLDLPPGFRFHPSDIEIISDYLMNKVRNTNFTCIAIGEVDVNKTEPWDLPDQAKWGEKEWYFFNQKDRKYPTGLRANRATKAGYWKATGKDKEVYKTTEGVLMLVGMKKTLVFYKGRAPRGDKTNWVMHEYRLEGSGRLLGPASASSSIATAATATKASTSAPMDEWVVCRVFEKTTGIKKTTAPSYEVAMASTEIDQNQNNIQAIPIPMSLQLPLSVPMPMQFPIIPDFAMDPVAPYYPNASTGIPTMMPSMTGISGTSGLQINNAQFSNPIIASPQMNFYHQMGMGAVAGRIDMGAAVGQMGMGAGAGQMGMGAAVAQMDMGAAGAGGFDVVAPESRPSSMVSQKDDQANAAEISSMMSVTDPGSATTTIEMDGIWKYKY

[3] = molecular target: T3, SORBI_3005G056300 (NAC TF) (UniProt C5Y5Q6 1-283)
T3 sequence: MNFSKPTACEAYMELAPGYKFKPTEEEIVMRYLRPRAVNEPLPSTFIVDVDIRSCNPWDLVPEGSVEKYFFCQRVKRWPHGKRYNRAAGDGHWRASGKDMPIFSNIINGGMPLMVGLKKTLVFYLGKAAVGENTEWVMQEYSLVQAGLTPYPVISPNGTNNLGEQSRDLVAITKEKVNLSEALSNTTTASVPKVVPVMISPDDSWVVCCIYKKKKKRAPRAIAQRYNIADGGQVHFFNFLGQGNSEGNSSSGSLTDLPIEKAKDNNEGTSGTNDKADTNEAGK

Measured: binding result

B1: 4x CACGCAA repeat probe (dsDNA)
DNA 1: TCACGCAACACGCAACACGCAACACGCAAG
DNA 2: CTTGCGTGTTGCGTGTTGCGTGTTGCGTGA
binds: all assays above
